Values of other authors as cited in article PMC9958082.
pKd: −log10 of the molar value.

Target: E-cadherin (Homo sapiens) (UniProt P12830)
Conditions: cited from earlier work

Sequence of UniProt P12830 (P12830 155-709): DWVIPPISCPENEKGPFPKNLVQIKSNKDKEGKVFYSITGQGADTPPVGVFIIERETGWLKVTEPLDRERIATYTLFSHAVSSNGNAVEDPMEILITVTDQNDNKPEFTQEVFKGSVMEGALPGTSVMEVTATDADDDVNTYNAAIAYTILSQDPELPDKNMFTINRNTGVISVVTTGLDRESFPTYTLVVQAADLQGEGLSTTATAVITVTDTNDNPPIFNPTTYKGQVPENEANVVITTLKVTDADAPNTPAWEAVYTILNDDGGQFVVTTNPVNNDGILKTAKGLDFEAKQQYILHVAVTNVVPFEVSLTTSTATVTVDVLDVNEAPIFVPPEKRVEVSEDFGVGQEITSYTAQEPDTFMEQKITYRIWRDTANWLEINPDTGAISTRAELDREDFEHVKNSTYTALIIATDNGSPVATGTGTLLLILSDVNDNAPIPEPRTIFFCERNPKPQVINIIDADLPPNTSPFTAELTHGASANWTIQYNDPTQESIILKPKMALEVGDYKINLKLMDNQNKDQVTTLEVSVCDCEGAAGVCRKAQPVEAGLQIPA

In the case of “HA (hemagglutinin complex) (from UniProt P46085)”, the pKd is given as 5.64.
